Laboratory results as given in paper PMC12077085, “Structural elements of cyanobacterial co-factor-independent phosphoglycerate mutase that mediate regulation by PirC” (mBio, 2025).

Columns and labels:
[1] = molecular target: T1, iPGAM (Slr1945), strep-iPGAM, iPGAM-WT (Synechocystis sp. PCC 6803, UniProt P74507); assay: coupled enolase / pyruvate kinase / LDH assay, NADH decrease at […] nm; assay type: biochemical; conditions: 50 µM MnCl2; without PirC
T1 construct: gene gpmI; N-terminal strep-tag; expressed in E. coli Lemo21(DE3), Strep-Tactin purified; calculated 60 kDa; monomer by mass photometry

[2] = molecular target: T2, iPGAM (Slr1945), strep-iPGAM, iPGAM-WT (Synechocystis sp. PCC 6803, UniProt P74507, INS467TKKGI/DEL468-484, form not given); assay: as above; assay type: biochemical; conditions: 50 µM MnCl2; without PirC
T2 construct: gene gpmI; N-terminal strep-tag; expressed in E. coli Lemo21(DE3), Strep-Tactin purified; calculated 60 kDa; monomer by mass photometry

[3] = molecular target: strep-tagged iPGAM (2,3-bisphosphoglycerate-independent phosphoglycerate mutase, Slr1945) of Synechocystis sp. PCC 6803, wild type (Synechocystis sp. PCC 6803) (UniProt P74507)
[4] = molecular target: strep-tagged iPGAM-ΔloopΔCT (Synechocystis iPGAM with the loop replaced by TKKGI and the C-terminal segment deleted) (Synechocystis sp. PCC 6803) (UniProt P74507)
[5] = molecular target: strep-tagged iPGAM-ΔCT (Synechocystis iPGAM with the C-terminal segment deleted) (Synechocystis sp. PCC 6803) (UniProt P74507)
[6] = molecular target: strep-tagged iPGAM-Δloop (Synechocystis iPGAM with the loop replaced by TKKGI) (Synechocystis sp. PCC 6803) (UniProt P74507)
[7] = molecular target: strep-tagged PirC (Sll0944, PII-interacting regulator of carbon metabolism) (Synechocystis sp. PCC 6803) (UniProt P77971); assay: mass photometry; Refeyn OneMP; strep-iPGAM and strep-PirC alone (iPGAM 10 nM) and mixed at an iPGAM-PirC ratio of 1:3
[8] = molecular target: strep-tagged iPGAM (2,3-bisphosphoglycerate-independent phosphoglycerate mutase, Slr1945) of Synechocystis sp. PCC 6803, wild type (Synechocystis sp. PCC 6803) (UniProt P74507); assay: as above
[9] = molecular target: His-tagged PirC (Sll0944, PII-interacting regulator of carbon metabolism) (Synechocystis sp. PCC 6803) (UniProt P77971); assay: BLI; Octet K2; His-tagged PirC immobilised on a Ni2+-NTA sensor, strep-iPGAM variants as analytes in various concentrations
His-tagged PirC (Sll0944, PII-interacting regulator of carbon metabolism) (Synechocystis sp. PCC 6803), sequence (P77971 whole entry): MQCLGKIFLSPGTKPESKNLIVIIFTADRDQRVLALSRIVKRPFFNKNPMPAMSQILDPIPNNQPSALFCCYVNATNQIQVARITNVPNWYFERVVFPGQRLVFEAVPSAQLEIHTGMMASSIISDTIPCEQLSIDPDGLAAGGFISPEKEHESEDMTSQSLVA

[10] = substrate: O=C(O)[C@H](O)COP(=O)(O)O; assay: purified protein; assay type: biochemical, Synechocystis sp. PCC 6803; conditions: 50 µM MnCl2; without PirC

Molecule: O=C(O)[C@H](O)COP(=O)(O)O [3-PGA]
- Km [1]: 242 ± 19 µM
- Km [2]: 547 ± 59 µM

Molecule: His-tagged PirC (Sll0944, PII-interacting regulator of carbon metabolism) (from UniProt P77971 1-164) (natural protein)
- IC50 of PirC on iPGAM activity, coupled enzyme assay at 0.75 mM 3-PGA (50 to 1,600 nM PirC) [3]: 120 nM
- IC50 of PirC on iPGAM activity, coupled enzyme assay at 0.75 mM 3-PGA (50 to 1,600 nM PirC) [4]: 164 nM
- IC50 of PirC on iPGAM activity, coupled enzyme assay at 0.75 mM 3-PGA (50 to 1,600 nM PirC) [5]: 1070 nM
- IC50 of PirC on iPGAM activity, coupled enzyme assay at 0.75 mM 3-PGA (50 to 1,600 nM PirC) [6]: 217 nM

Molecule: strep-tagged PirC (Sll0944, PII-interacting regulator of carbon metabolism) (from UniProt P77971 1-164) (natural protein)
- stoichiometry N [7]: 6
- stoichiometry N (PirC monomers per iPGAM) [8]: 3

Molecule: strep-tagged iPGAM-ΔCT (Synechocystis iPGAM with the C-terminal segment deleted) (from UniProt P74507 1-532) (enzyme)
- Kd [9]: 114 nM

Molecule: strep-tagged iPGAM-Δloop (Synechocystis iPGAM with the loop replaced by TKKGI) (from UniProt P74507 1-532) (enzyme)
- Kd [9]: 203 nM

Molecule: strep-tagged iPGAM-ΔloopΔCT (Synechocystis iPGAM with the loop replaced by TKKGI and the C-terminal segment deleted) (from UniProt P74507 1-532) (enzyme)
- Kd [9]: 233 nM

B1: iPGAM (Slr1945), strep-iPGAM, iPGAM-WT (Synechocystis sp. PCC 6803 substr. Kazusa; DEL468-484/INS467TKKGI) (protein)
chain: MAEAPIAPVVLVILDGWGYRPDTRANAIAQANTPIMDSLIAAYPNTLVNTSGKDVGLPKGQMGNSEVGHLNLGAGRVVPQELVRISDAIEDGTFFDNQALIEVCQRVRDRRGKLHLIGLCSDGGVHSHIDHLLGLIDLAKLQGISQLCIHAITDGRDTPTNEGAHFVQQIQAHLEKIGLGRIVSVSGRYYALDRDRRWDRVEKAYRVMTEDGVGDGRSAAQVIKDYYASDITDEFIPPTRIGAGAIASGDGVIFYNFRPDRARQLCYALVNPSFDGFPRERIQPLDFVTFTQYDPALPVVVAFEPQNLNNILGEIISRQGMKQFRTAETEKYPHVTYFFNGGLEQPFAGEDRELIQSPMVSTYDKAPQMSAKAVTDAVCRAMEKGIYSLVVVNYANPDMVGHTGKLKEAIQAIETVDLNLGRLLASAAKVGGTVLITADHGNAEYMSDESGNPWTAHTTNPVPFILVTKKGIEGGKLADIAPTILDILQLPVPAEMTGKTLIDQPLVEIKANRTPVNLSR
notes: N-terminal strep-tag; expressed in E. coli Lemo21(DE3), Strep-Tactin purified; calculated 60 kDa; monomer by mass photometry
- Km [10]: 1087 ± 141 µM
- Vmax [10]: 6.86 µmol/min/mg
- kcat [10]: 6.7 ± 0.4 s⁻¹
- kcat/Km [10]: 6190 ± 874 M⁻¹ s⁻¹

B2: strep-tagged iPGAM (2,3-bisphosphoglycerate-independent phosphoglycerate mutase, Slr1945) of Synechocystis sp. PCC 6803, wild type (enzyme)
chain: MAEAPIAPVVLVILDGWGYRPDTRANAIAQANTPIMDSLIAAYPNTLVNTSGKDVGLPKGQMGNSEVGHLNLGAGRVVPQELVRISDAIEDGTFFDNQALIEVCQRVRDRRGKLHLIGLCSDGGVHSHIDHLLGLIDLAKLQGISQLCIHAITDGRDTPTNEGAHFVQQIQAHLEKIGLGRIVSVSGRYYALDRDRRWDRVEKAYRVMTEDGVGDGRSAAQVIKDYYASDITDEFIPPTRIGAGAIASGDGVIFYNFRPDRARQLCYALVNPSFDGFPRERIQPLDFVTFTQYDPALPVVVAFEPQNLNNILGEIISRQGMKQFRTAETEKYPHVTYFFNGGLEQPFAGEDRELIQSPMVSTYDKAPQMSAKAVTDAVCRAMEKGIYSLVVVNYANPDMVGHTGKLKEAIQAIETVDLNLGRLLASAAKVGGTVLITADHGNAEYMSDESGNPWTAHTTNPVPFILVEGEGRKIPGHGGEVKLREGGKLADIAPTILDILQLPVPAEMTGKTLIDQPLVEIKANRTPVNLSR
- Kd [9]: 378 nM

B3: iPGAM (Slr1945), strep-iPGAM, iPGAM-WT (Synechocystis sp. PCC 6803 substr. Kazusa) (protein)
chain: MAEAPIAPVVLVILDGWGYRPDTRANAIAQANTPIMDSLIAAYPNTLVNTSGKDVGLPKGQMGNSEVGHLNLGAGRVVPQELVRISDAIEDGTFFDNQALIEVCQRVRDRRGKLHLIGLCSDGGVHSHIDHLLGLIDLAKLQGISQLCIHAITDGRDTPTNEGAHFVQQIQAHLEKIGLGRIVSVSGRYYALDRDRRWDRVEKAYRVMTEDGVGDGRSAAQVIKDYYASDITDEFIPPTRIGAGAIASGDGVIFYNFRPDRARQLCYALVNPSFDGFPRERIQPLDFVTFTQYDPALPVVVAFEPQNLNNILGEIISRQGMKQFRTAETEKYPHVTYFFNGGLEQPFAGEDRELIQSPMVSTYDKAPQMSAKAVTDAVCRAMEKGIYSLVVVNYANPDMVGHTGKLKEAIQAIETVDLNLGRLLASAAKVGGTVLITADHGNAEYMSDESGNPWTAHTTNPVPFILVEGEGRKIPGHGGEVKLREGGKLADIAPTILDILQLPVPAEMTGKTLIDQPLVEIKANRTPVNLSR
notes: as for B1
- Km [10]: 265 ± 13 µM
- Vmax [10]: 18.6 µmol/min/mg
- kcat [10]: 18.6 ± 0.3 s⁻¹
- kcat/Km [10]: 70200 ± 3590 M⁻¹ s⁻¹
